The values below come from patent US9624471B2, “Methods for maturing cardiomyocytes and uses thereof” (UNIVERSITY OF WASHINGTON THROUGH ITS CENTER FOR …, priority 2013, dated 2017).

In series [1] the test system is cardiomyocytes (let-7 OE CMs vs. EV control). The series can be described thus: SEAHORSE XF96 metabolic flux assay (MITOSTRESS, palmitate, glucose stress). In kind it is cell-based, human. The following applies: compared to EV control; for OCR changes after FCCP treatment (maximal respiration capacity): after oligomycin. The text has this:
To understand the molecular signaling components of maturation program that are modulated in let-7g OE CMs, the inventors probed the differential expression data further using density plots for each of the 12 pathways previously identified (FIG. 4F). […] The inverse relationship between FA metabolism and PI3/AKT/insulin signaling in let-7g OE CMs was similar to that observed in the 1 yr old CMs and consistent with the metabolic switch seen in maturing CMs in in vivo studies. The inventors validated by qPCR in the let-7 OE CMs the down-regulation of candidate let-7 targets in the insulin pathway and up-regulation of candidates of FA metabolism (FIG. 5B). To test the functional relevance for these gene expression changes, the inventors carried out metabolic analysis of let-7 OE CMs vs. EV control using the SEA HORSE™ metabolic flux assay. First, mitochondrial maximal respiration capacity was analyzed by measuring the oxygen consumption rate (OCR), a metabolic parameter representing the mitochondrial respiration levels. To record the maximum activity of the electron transport chain uncoupled from ATP synthesis, mitochondrial ATP synthase was inhibited with oligomycin, then maximum mitochondrial respiration was measured after addition of the proton gradient discharger, carbonyl cyanide 4-(trifluoromethoxy)phenylhydrazone (FCCP). […] Increased mitochondrial respiration can be due to increased mitochondrial copy number or increased mitochondrial activity, for example due to higher efficiency of glucose or fatty acid usage as energy substrates. […] To investigate whether the let-7 OE CMs also utilize glucose more efficiently, the extracellular acidification rate (ECAR) was determined. […] These experiments clearly indicate that let-7 OE specifically increases the efficiency of palmitate usage, which is an important sign of maturation.
The SEAHORSE™ XF96 extracellular flux analyzer was used to assess mitochondrial function. The plates were pre-treated with 0.1% Gelatin. At around 20 days after differentiation, the cardiomyocytes (both empty vector control and let-7 OE) were seeded onto the plates with a density of 30,000 cells per XF96 well (2,500/mm^2) to ensure about 90% surface coverage at the time of experiment. The SEAHORSE™ assays were carried out 3 days after the seeding onto the XF96 well plate. […] The OCR values were further normalized to the number of cells present in each well, quantified by the Hoechst staining (Hoechst 33342; SIGMA-ALDRICH™) as measured using fluorescence at 355 nm excitation and 460 nm emission. […] Cellular capacity to utilize Palmitate as an energy source was calculated as the OCR reduction after ETO addition. […]

The next series has as its system IMR90 iPSC-CMs. The series can be described thus: let-7 over-expression in IMR90 iPSC derived cardiomyocytes, qPCR. In kind it is cell-based. The following applies: for let-7 over expression relative to empty vector (EV) control: pLKO-lentiviral OE for up to 2 weeks; for cardiomyocyte maturation markers expression / let-7 targets (lin28 and HMGA2) expression: qPCR. The source says:
FIGS. 19A-19B show let-7 over-expression (OE) in IMR90 iPSC derived cardiomyocytes (IMR90 iPSC-CMs). A pLKO-lentiviral based system was used to overexpress let-7g and let-7i in IMR90-iPSC-CMs for up to 2 weeks. […] Experiments were validated with 3 biological and 3 technical replicates. FIG. 19B qPCR validated the down-regulation of let-7 targets (lin28 and HMGA2) and upregulation of cardiomyocyte maturation markers in let-7i OE and let-7g OE CMs.
Total RNAs were extracted with miRNeasy™ mini kit (QIAGEN™) or using TRIZOL™ (INVITROGEN™). RNA was DNAse treated with DNA-free kit (AMBION™). miR-let-7g and mir-let-7i taqman assays (APPLIED BIOSYSTEMS) were used for miRNAqPCRs following the manufacturer's protocol using RNU66 snoRNA as a loading control. For mRNA qPCR, reverse transcription reaction was carried out using Omniscript™ RT kit (QIAGEN™). Primers for CTNT, MYH7, RYR2, SERCA2 and GJA1 were based on Tulloch et a1^2. Primers for HCN4, KCNJ2, SCN5A, HMGA1, HMGA2, IRS2, INSR, LIN28, SLC27A6 and FABP2, CD36, PPARA, TRIM71, EGR1, CDKN1A were purchased from Real Time Primers. qPCR was performed using SYBR green chemistry and ABI 7300 Real time PCR system. Samples were normalized using GAPDH as a house keeping gene.

The test system of a further series is let-7 OE CMs. The series can be described thus: Mitochondrial DNA copy number by qPCR (mtCol normalized to GAPDH). The class given is cell-based, human. The following applies: let-7 OE vs. EV control. The text has this: FIGS. 5A-5G Let-7 over expression results in down-regulation of PI3/AKT/Insulin pathway and up-regulation of FA metabolism. Comparisons were done between let-7OE and EV control for all assays (FIG. 5A) Density plots using R generated with fold change expression (let-7g OE/EV) of genes for FA metabolism and PI3/AKT/Insulin signaling. (FIG. 5B) qPCR analysis of candidate let-7 targets of the insulin pathway and genes from the FA metabolism. (FIG. 5C) Representative OCR profile in response to ATP synthase inhibitor oligomycin, uncoupler of electron transport and oxidative phosphorylation, FCCP and electron transport chain blockers rotenone and antimycin during mito-stress assay. (FIG. 5D) Quantification of maximal respiration capacity, i.e., changes in response to FCCP treatment after inhibition of ATP synthase by oligomycin. n=24 from 3 biological replicates. (FIG. 5E) mitochondrial DNA copy number was determined by measuring the ratio of MtDNA to genomic DNA using primers specific for mitochondrial DNA gene, Col (mtCol) and normalizing to chromosomal gene GAPDH. (FIG. 5F) Representative OCR trace of let-7g OE cardiomyocytes for fatty acid stress measuring Etomixir (ETO) responsive OCR changes after palmitate addition. (FIG. 5G) Quantification of changes in OCR in response to ETO. n=32 from 3 biological replicates. […]

B1: let-7i: human let-7 family miRNA, SEQ ID NO: 10, overexpressed from pLKO lentiviral pri-miR-let-7i construct (nucleic acid, listed as Homo sapiens)
chain: CUGGCUGAGGUAGUAGUUUGUGCUGUUGGUCGGGUUGUGACAUUGCCCGCUGUGGAGAUAACUGCGCAAGCUACUGCCUUGCUA
For B1, in series [1], the “OCR changes after FCCP treatment (maximal respiration capacity)” value is listed as “significantly greater” and the “OCR increase in response to palmitate (fatty acid stress test)” value was “greater”. Further, in the series on IMR90 iPSC-CMs, the “let-7 over expression relative to empty vector (EV) control” value is given as “up to 8 fold”; the “cardiomyocyte maturation markers expression” value is recorded as “upregulation”; the “let-7 targets (lin28 and HMGA2) expression” value was “down-regulation”. Further, the “mitochondrial genome copy number” value with let-7 OE CMs was “without affecting”.

B2: let-7g: human let-7 family miRNA, SEQ ID NO: 9, overexpressed from pLKO lentiviral pri-miR-let-7g construct (nucleic acid, listed as Homo sapiens)
chain: AGGCUGAGGUAGUAGUUUGUACAGUUUGAGGGUCUAUGAUACCACCCGGUACAGGAGAUAACUGUACAGGCCACUGCCUUGCCA
As to B2, in series [1], the “OCR changes after FCCP treatment (maximal respiration capacity)” value is listed as “significantly greater” and the “OCR increase in response to palmitate (fatty acid stress test)” value is given as “greater”. In addition, in the series with IMR90 iPSC-CMs, the “let-7 over expression relative to empty vector (EV) control” value is given as at most 10 fold; the “cardiomyocyte maturation markers expression” value is listed as “upregulation”; the “let-7 targets (lin28 and HMGA2) expression” value is reported as “down-regulation”. Moreover, in the series on let-7 OE CMs, the “mitochondrial genome copy number” value is given as “without affecting”.
